For data set [1], the target named is EAKH6 self-assembling peptide (EAK16-II with a C-terminal hexa-histidine tag).
Data set [2] shares this target. This is another data set of the same source.
Data set [3] concerns the molecule itself. Nature of the data set: Congo red staining (fluorescence microscopy and UV-vis absorbance); EAKH6 alone and with Zn2+ at molar ratios 1:20 to 20:1, incubated with Congo red in PBS overnight at room temperature; fibrils imaged, shift of absorbance from 500 to 540 nm.

For the molecule “Green Fluorescent Protein coexpressed with a hexahistidine tag”, the in vitro release of HisGFP from Ca2+:EAKH6 (10:1, without Zn2+) coacervates, control; released in 5 days in data set [1] worked out at 98%. In data set [2], the apparent diffusion (D app) of HisGFP out of Ca2+:EAKH6 coacervates (without Zn2+), control, from the release up to 8 h was found to be 2.07e-11 m^2 s^-1 and the apparent diffusion (D app) of HisGFP out of Zn2+:EAKH6 coacervates, from the release up to 8 h was 6.7e-12 m^2 s^-1.

B1: EAKH6 self-assembling peptide (EAK16-II with a C-terminal hexa-histidine tag) (peptide)
peptide: Ac-AEAEAKAKAEAEAKAKHHHHHH-NH2
notes: hexa-histidine tag (H6) at the C-terminus; written as a part because Zn2+ bridges it to the His tag of the cargo protein; In the assays the peptide stood as self-assembled fibrils (coacervate), with ZnCl2 or CaCl2 where said; also called Zn2+:EAKH6 (its coacervate with zinc); Ca2+:EAKH6 (with calcium); source: synthetic peptide, custom-synthesized by Biomatek (>95% purity by HPLC)
Regarding B1, the binding result in data set [3] is given as “binds”.

The values above are taken from paper PMC12820974, “Zinc-Mediated Loading and Release of His-Tagged Recombinant Proteins in Self-Assembling Peptide Coacervates” (ACS Applied Bio Materials, 2025).
